Source: patent US20230038638A1, “COMPLEMENT FACTOR I-RELATED COMPOSITIONS AND METHODS” (published 2023)
Changes are numbered by the printed parent chain.

Key:
[1] = target: soluble human C3b (human) (UniProt P01024)
human C4b (human) [2] = target: T1, human C4b (human) (UniProt P0C0L4)
T1 sequence: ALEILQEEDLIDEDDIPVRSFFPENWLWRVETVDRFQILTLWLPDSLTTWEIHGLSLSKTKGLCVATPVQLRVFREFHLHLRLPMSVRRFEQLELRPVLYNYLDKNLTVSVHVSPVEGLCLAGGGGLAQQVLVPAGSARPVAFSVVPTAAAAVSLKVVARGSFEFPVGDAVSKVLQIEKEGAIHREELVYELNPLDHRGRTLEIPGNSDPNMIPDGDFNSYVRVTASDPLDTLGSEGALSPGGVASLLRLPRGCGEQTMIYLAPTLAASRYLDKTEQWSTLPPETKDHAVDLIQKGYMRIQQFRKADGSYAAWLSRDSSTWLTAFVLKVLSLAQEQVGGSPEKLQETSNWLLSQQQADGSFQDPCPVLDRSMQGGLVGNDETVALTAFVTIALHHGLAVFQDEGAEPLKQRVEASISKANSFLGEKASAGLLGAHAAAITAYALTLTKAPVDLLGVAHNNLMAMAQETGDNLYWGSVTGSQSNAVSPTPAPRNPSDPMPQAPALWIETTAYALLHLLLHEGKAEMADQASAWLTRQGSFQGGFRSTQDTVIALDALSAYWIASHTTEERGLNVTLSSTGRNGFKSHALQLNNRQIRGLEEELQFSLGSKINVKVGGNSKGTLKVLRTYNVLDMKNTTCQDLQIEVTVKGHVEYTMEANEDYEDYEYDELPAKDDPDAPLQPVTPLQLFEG

[3] = target: soluble human C3b (human) (UniProt P01024); remark: listed apart in the source
human C4b (human) [4] = target: T2, human C4b (human) (UniProt P0C0L5)
T2 sequence: T1 sequence with A151T, D317G, P364L, C365S, L368I, D369H, N420S, V451A, L454R, S530A

human C4b (human) [5] = target: T1, human C4b (human); remark: listed apart in the source

Substance	iC3b EC50 [1]	C4c EC50 (nM) (human C4b (human) [2])	C4c EC50 (human C4b (human) [2])	further results
CFI-HSA variant A405G (enzyme)	21.7 nM	158 nM	–	–
CFI-HSA variant D425H (enzyme)	10.7 nM	–	123 nM	–
CFI-HSA variant D425I (enzyme)	13 nM	–	112 nM	–
CFI-HSA variant D425P (enzyme)	13.6 nM	–	640 nM	–
CFI-HSA variant D425R; Y408L; N531G; E457G; E461Q; R462K; F464Y; E530Y (enzyme)	4.3 nM	12.3 nM	–	–
CFI-HSA variant D425T (enzyme)	11.5 nM	–	227 nM	–
CFI-HSA variant D425W (enzyme)	14.2 nM	–	87.6 nM	–
CFI-HSA variant D425Y (enzyme)	14.3 nM	–	112 nM	–
CFI-HSA variant D459G (enzyme)	24.6 nM	348 nM	–	–
CFI-HSA variant D549A (enzyme)	32.2 nM	> 1000 nM	–	–
CFI-HSA variant D549N (enzyme)	21.9 nM	168 nM	–	–
CFI-HSA variant D549P (enzyme)	41.7 nM	> 1000 nM	–	–
CFI-HSA variant E401G (enzyme)	8.9 nM	126 nM	–	–
CFI-HSA variant E457G; D425R; E530Y (enzyme)	3.6 nM	234 nM	–	–
CFI-HSA variant E457G; E461Q; N531G; GGSSGG (SEQ ID NO: 6); CR1 (ccp15-17) (from UniProt P17927) (enzyme)	33 nM	50.3 nM	–	–
CFI-HSA variant E457G; E461Q; R557A (enzyme)	36.6 nM	61.8 nM	–	–
CFI-HSA variant E457G; E461Q; R557K (enzyme)	10.8 nM	52.6 nM	–	–
CFI-HSA variant E457G; N531G (enzyme)	6.5 nM	–	11.2 nM	–
CFI-HSA variant E457G; N531G; D425R; E530Y (enzyme)	4.4 nM	16.4 nM	–	–
CFI-HSA variant E457G; N531G; E461Q; R462K; F464Y; E530Y (enzyme)	3.5 nM	7.8 nM	–	–
CFI-HSA variant E457G; N531G; E461Q; R462K; F464Y; GGSSGG (SEQ ID NO: 6); CR1 (ccp15-17) (from UniProt P17927) (enzyme)	32.7 nM	43.1 nM	–	–
CFI-HSA variant E457G; N531G; E530Y (enzyme)	5 nM	13 nM	–	–
CFI-HSA variant E457G; N531G; P535G; WT; GGSSGG (SEQ ID NO: 6); CR1(ccp15-17) (enzyme)	14.3 nM	–	44.4 nM	–
CFI-HSA variant E457G; N531G; WT; GGSSGG (SEQ ID NO: 6); CR1(ccp15-17) (enzyme)	28.1 nM	–	29.1 nM	–
CFI-HSA variant E457G; WT; GGSSGG (SEQ ID NO: 6); CR1(ccp15-17) (enzyme)	21.6 nM	–	42.3 nM	–

Substance	iC3b EC50 [1]	C4c EC50 (nM) (human C4b (human) [2])	C4c EC50 (human C4b (human) [2])	further results
CFI-HSA variant F464P (enzyme)	> 500 nM	–	> 1000 nM	–
CFI-HSA variant H370G (enzyme)	80.8 nM	> 1000 nM	–	–
CFI-HSA variant K504D; Y408L; N531G (enzyme)	20.9 nM	–	242 nM	–
CFI-HSA variant K504E; Y408L; N531G (enzyme)	19.4 nM	–	120 nM	–
CFI-HSA variant K534H (enzyme)	15.7 nM	–	104 nM	–
CFI-HSA variant L307A (enzyme)	17.1 nM	–	93.4 nM	–
CFI-HSA variant L307S (enzyme)	18.4 nM	–	54.1 nM	–
CFI-HSA variant N404G (enzyme)	–	–	310 nM	iC3b Screen Ref Fold (fold of reference) [3]: 0.94; iC3b Screen Ref Fold (fold vs CFI-HSA wild type) [3]: 0.68; C4b Screen Ref Fold (fold vs CFI-HSA wild type) (human C4b (human) [4]): 0.31; C4b Screen Ref Fold (fold of reference) (human C4b (human) [5]): 0.53
CFI-HSA variant N531G; E457G; E461Q; R462K (enzyme)	5.9 nM	–	18.4 nM	–
CFI-HSA variant N531G; E457G; E461Q; R557A (enzyme)	19.1 nM	25 nM	–	–
CFI-HSA variant N531G; E457G; E461Q; R557K (enzyme)	8.3 nM	23.2 nM	–	–
CFI-HSA variant N531G; E457G; E461Q; ΔC-term (Δ558-PFISQYNV (SEQ ID NO: 14)-565) (enzyme)	97.1 nM	51.1 nM	–	–
CFI-HSA variant N531G; E457G; F464Y (enzyme)	7 nM	–	16.4 nM	–
CFI-HSA variant N531G; E457G; R462K (enzyme)	7.7 nM	–	17.3 nM	–
CFI-HSA variant N531G; E461Q (enzyme)	5.4 nM	–	24.2 nM	–
CFI-HSA variant N531G; E461Q; R462K (enzyme)	5.3 nM	–	38.7 nM	–
CFI-HSA variant N531G; P535A; GGSSGG (SEQ ID NO: 6); CR1(ccp15-17) (enzyme)	20.4 nM	–	60.1 nM	–
CFI-HSA variant N531G; P535A; R557A (enzyme)	47.5 nM	28.2 nM	–	–
CFI-HSA variant N531G; P535A; R557K (enzyme)	17 nM	52.2 nM	–	–
CFI-HSA variant N531G; WT; GGSSGG (SEQ ID NO: 6); CR1(ccp15-17) (enzyme)	36.7 nM	–	60 nM	–
CFI-HSA variant P384A (enzyme)	–	–	> 1000 nM	iC3b Screen Ref Fold (fold of reference) [3]: 0.03; iC3b Screen Ref Fold (fold vs CFI-HSA wild type) [3]: 0.03; C4b Screen Ref Fold (fold vs CFI-HSA wild type) (human C4b (human) [4]): 0.07; C4b Screen Ref Fold (fold of reference) (human C4b (human) [5]): 0.29
CFI-HSA variant R365A (enzyme)	64.3 nM	> 1000 nM	–	–
CFI-HSA variant R462K; F464Y (enzyme)	106 nM	–	> 1000 nM	–
CFI-HSA variant R557D (enzyme)	> 500 nM	148 nM	–	–
CFI-HSA variant Y408L; E457G; E461Q; R462K; K504H; N531G (enzyme)	–	27.5 nM	–	iC3b Screen Ref Fold (fold of CFI-HSA wild type) [3]: 0.84; C4b Screen Ref Fold (fold of CFI-HSA wild type) (human C4b (human) [5]): 3.83
